Drawing on patent US20190248907A1 (Merck KGaA, published 2019), this text covers Kd for three molecules.

The target of this test is T1, human c-MET ECD (human, UniProt P08581 25-932).
T1 construct: also called recombinant human c-MET ECD; human c-MET ECD-His
The test is described as follows: not stated (summary of antibody properties, FIG. 6).

T1 sequence (P08581 25-932 limits assumed): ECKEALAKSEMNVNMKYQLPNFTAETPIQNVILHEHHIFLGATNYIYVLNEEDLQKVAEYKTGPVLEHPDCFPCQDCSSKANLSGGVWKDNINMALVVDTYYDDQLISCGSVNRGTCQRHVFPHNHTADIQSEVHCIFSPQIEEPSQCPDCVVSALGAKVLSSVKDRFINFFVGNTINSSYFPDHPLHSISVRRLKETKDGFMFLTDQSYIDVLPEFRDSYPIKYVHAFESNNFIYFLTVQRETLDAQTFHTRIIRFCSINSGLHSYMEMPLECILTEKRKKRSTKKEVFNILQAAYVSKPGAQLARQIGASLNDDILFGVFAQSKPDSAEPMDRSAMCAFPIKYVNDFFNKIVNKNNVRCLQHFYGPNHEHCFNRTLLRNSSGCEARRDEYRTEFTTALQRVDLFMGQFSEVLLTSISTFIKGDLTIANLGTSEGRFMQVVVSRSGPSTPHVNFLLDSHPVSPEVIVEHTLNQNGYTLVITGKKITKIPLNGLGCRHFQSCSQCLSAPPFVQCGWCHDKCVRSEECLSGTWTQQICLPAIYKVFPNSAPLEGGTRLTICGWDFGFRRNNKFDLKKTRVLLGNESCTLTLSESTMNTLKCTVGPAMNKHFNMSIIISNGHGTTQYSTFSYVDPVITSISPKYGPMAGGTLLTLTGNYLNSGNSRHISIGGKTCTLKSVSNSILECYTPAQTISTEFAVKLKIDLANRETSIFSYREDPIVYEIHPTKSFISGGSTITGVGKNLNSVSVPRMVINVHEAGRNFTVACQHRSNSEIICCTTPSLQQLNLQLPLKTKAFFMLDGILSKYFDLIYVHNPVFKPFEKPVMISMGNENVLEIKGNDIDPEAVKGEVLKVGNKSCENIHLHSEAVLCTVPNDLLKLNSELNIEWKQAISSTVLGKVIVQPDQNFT

B1: oa CS06 (antibody, V domains shown)
VH: QVQLQQSGAEVKKPGSSAKVSCKASGGTFSSNAISWVRQAPGQGLEWMGGIIPIFGTAIYAQKFQGRVTITADESTSTAYMELSSLRSEDTAVYYCARDQRGYYYYYYYGMDVWGQGTTVTVSS
VL: QLVLTQSPSVSVAPGKTARITCGGNNIRNVGVHWYQKKPGQAPILVVYDDDDRPSGVPERFSGSNSGNTATLTISRVEAGDEADYYCQVWDSATDQRVFGGGTKLTVL
notes: also called one-armed CS06; anti-c-MET clone CS06 (monovalent one-armed format); copies: 1 + 1
By Kd is commonly meant the equilibrium constant for the complex coming apart. Regarding B1, the Kd was ~0.3 nM.

B2: biparatopic bispecific heterodimeric immunoglobulin molecule comprising Fab fragments CS06 and B10v5 (bispecific antibody)
chain 1: QLVLTQSPSVSVAPGKTARITCGGNNIRNVGVHWYQKKPGQAPILVVYDDDDRPSGVPERFSGSNSGNTATLTISRVEAGDEADYYCQVWDSATDQRVFGGGTKLTVLGQPKAG
chain 2: B1 VH
chain 3: EPVLTQPPSVSVAPGETATIPCGGDSLGSKIVHWYQQRPGQAPLLVVYDDAARPSGIPERFSGSKSGTTATLTISSVEAGDEADYFCQVYDYHSDVEVFGGGTKLTVLGQPKAA
chain 4: not shown
With B2, the Kd is ~0.0196 nM.

B3: CS06 IgG1 (antibody, V domains shown)
VH: B1 VH
VL: QLVLTQSPSVSVAPGKTARITCGGNNIRNVGVHWYQKKPGQAPILVVYDDDDRPSGVPERFSGSNSGNTATLTISRVEAGDEADYYCQVWDSATDQRVFGGGTKLTVLG
notes: Bivalent IgG1; also called anti-c-MET clone CS06
As for B3, the equilibrium dissociation constant (Kd) was ~0.134 nM.
